Experiments:
[1] = system: CC(C)(O/N=C(\C(=O)N[C@@H]1C(=O)N2C(C(=O)[O-])=C(C[n+]3ccccc3)CS[C@H]12)c1csc(N)n1)C(=O)O; assay: purified protein; format: biochemical, Klebsiella pneumoniae; conditions: 50 mM morpholinepropanesulfonic acid pH 7.0, 50 mM NaCl, 100 mM sodium phosphate pH 7.0, 30°C
[2] = system: CC(C)(O/N=C(\C(=O)N[C@@H]1C(=O)N2C(C(=O)[O-])=C(C[n+]3ccccc3)CS[C@H]12)c1csc(N)n1)C(=O)O; assay: purified protein; conditions: 50 mM morpholinepropanesulfonic acid pH 7.0, 50 mM NaCl, 100 mM sodium phosphate pH 7.0, 30°C

Substance	Km [1] [µM]	kcat [1] [s⁻¹]	kcat/Km [1] [M⁻¹ s⁻¹]	Km [2] [µM]	kcat [2] [s⁻¹]	kcat/Km [2] [M⁻¹ s⁻¹]
KPC-2 (and its variant KPC-55 = KPC-2 Y264N) (Klebsiella pneumoniae)	0.28 ± 0.09	0.02 ± 0.003	70000 ± 20000	–	–	–
KPC-2 (and its variant KPC-55 = KPC-2 Y264N) (Klebsiella pneumoniae; Y262N)	–	–	–	0.40 ± 0.11	0.2	450000
